Patent publication US20060241289A1
Values joined by “and” are separate entries in the source; they are usually repeats but may differ in a detail not shown here. Identical values can stand only once. Like-named read-outs stand apart in the source and are kept apart here.

What was measured:
[1] = target: TSH receptor coated onto plastic tubes (UniProt P16473); assay: TSHR coated tubes; 9D33 IgG 0.1 µg/mL; competitor 125I-9D33
[2] = target: TSH receptor coated onto plastic tubes (UniProt P16473); assay: TSHR coated tubes; 9D33 IgG 10 µg/mL; competitor 125I-hMAb TSHR1
[3] = target: TSH receptor coated onto plastic tubes (UniProt P16473); assay: 125I-9D33 binding to TSHR coated tubes in the pool of healthy blood donor sera, no 90/672
[4] = target: TSH receptor coated onto plastic tubes (UniProt P16473); assay: TSHR coated tubes; 9D33 IgG 0.1 µg/mL; competitor 125I-TSH
[5] = target: TSH receptor coated onto plastic tubes (UniProt P16473); assay: TSHR coated tubes; 9D33 IgG 0.01 µg/mL; competitor 125I-hMAb TSHR1
[6] = target: TSH receptor coated onto plastic tubes (UniProt P16473); assay: TSHR coated tubes; 9D33 IgG 0.001 µg/mL; competitor 125I-TSH
[7] = target: TSH receptor coated onto plastic tubes (UniProt P16473); assay: TSHR coated tubes; 9D33 IgG 0.001 µg/mL; competitor 125I-hMAb TSHR1
[8] = target: TSH receptor coated onto plastic tubes (UniProt P16473); assay: TSHR coated tubes; 9D33 IgG 1 µg/mL; competitor 125I-hMAb TSHR1
[9] = target: TSH receptor coated onto plastic tubes (UniProt P16473); assay: TSHR coated tubes; 9D33 IgG 0.01 µg/mL; competitor 125I-9D33
[10] = target: TSH receptor coated onto plastic tubes (UniProt P16473); assay: 125I-9D33 binding to TSHR coated tubes in the pool of healthy blood donor sera
[11] = target: TSH receptor coated onto plastic tubes (UniProt P16473); assay: TSHR coated tubes; 9D33 IgG 0.1 µg/mL; competitor 125I-hMAb TSHR1
[12] = target: TSH receptor coated onto plastic tubes (UniProt P16473); assay: TSHR coated tubes; 9D33 IgG 1 µg/mL; competitor 125I-TSH
[13] = target: TSH receptor coated onto plastic tubes (UniProt P16473); assay: TSHR coated tubes; 9D33 IgG 10 µg/mL; competitor 125I-9D33
[14] = target: TSH receptor coated onto plastic tubes (UniProt P16473); assay: TSHR coated tubes; 9D33 IgG 1 µg/mL; competitor 125I-9D33
[15] = target: TSH receptor coated onto plastic tubes (UniProt P16473); assay: TSHR coated tubes; 9D33 IgG 0.01 µg/mL; competitor 125I-TSH
[16] = target: TSH receptor coated onto plastic tubes (UniProt P16473); assay: TSHR coated tubes; 9D33 IgG 10 µg/mL; competitor 125I-TSH
[17] = target: TSH receptor coated onto plastic tubes (UniProt P16473); assay: TSHR coated tubes; 9D33 IgG 0.001 µg/mL; competitor 125I-9D33
[18] = target: human TSH receptor on CHO cells (human) (UniProt P16473); assay: cell-based or functional assay
[19] = target: human TSH receptor on CHO cells (human) (UniProt P16473); assay: cell-based or functional assay; remark: listed apart in the source

B1: 9D33 IgG (mouse monoclonal antibody to the TSHR) (antibody, V domains shown)
VH: DVQIQQPGTELVKPGASVRLSCKASGYTFTTYWMHWVKQRPGQGLEWIGEIDPSDSYTNYNQKFKGKATLTVDKSSSTAYMHLSSLTSEDSAVYYCSRNYGSGYYFDYWGQGTTLTVSS
VL: GVEMTQSPAIMSASPGEKVTMTCSASSSVSYMHWYQQKSGTSPKRWIYDTSKLASGVPARFSGSGSGTSYSLTISSMETEDAATYYCQQWSSNPWTFGGGTKLEIK
B1 gave an inhibition of 125I-9D33 binding [1] of 35%, an inhibition of 125I-hMAb TSHR1 binding [2] of 56% and a 125I-9D33 bound (% total counts added) [3] of 15%. The inhibition of 125I-TSH binding [4] was 34%, the inhibition of 125I-hMAb TSHR1 binding [5] was 3% and the inhibition of 125I-TSH binding [6] was 0%. For the same binder, the inhibition of 125I-hMAb TSHR1 binding [7] was 0%, the inhibition of 125I-hMAb TSHR1 binding [8] was 44% and the inhibition of 125I-9D33 binding [9] was 9%. The 125I-9D33 bound (% total counts added) [10] was 11%, the inhibition of 125I-hMAb TSHR1 binding [11] was 21% and the inhibition of 125I-TSH binding [12] was 58%. It also gave an inhibition of 125I-9D33 binding [13] of 71%, an inhibition of 125I-9D33 binding [14] of 64% and an inhibition of 125I-TSH binding [15] of 17%. The inhibition of 125I-TSH binding [16] was 68% and the inhibition of 125I-9D33 binding [17] was 4%.

B2: 2B4 IgG (mouse monoclonal antibody to the TSHR) (antibody, from another filing, V domains shown)
VH: DVQLQQSGTVLARPGASVRMSCKASGYSFTRYWIHWLKQRPGQGLEWIGAIFPGNRDTSYNQRFKGKAEVTAVTSASTAYLDLSSLTNEDSAVYYCTRWPYYGSIYVNFDYWGQGTTLTVSS
VL: DIVMTQSPLSLPVSLGDQASISCRTSQNLVHRNGNTYLHWYLQKPGQSPKLLIYKISNRFSGVPDRFSGSGSGTDFTLKISRVEAEDLGVYFCSQGTHVPPTFGGGTKLEIKR
With B2 the mean pmol cyclic AMP/cell well; 2B4 IgG 100 µg/mL alone (pmol/cell well) [18] was 0.331, the mean pmol cyclic AMP/cell well; hMAb TSHR1 Fab 5 ng/mL plus 2B4 IgG 100 µg/mL (pmol/cell well) [18] was 2.94 and the pmol cyclic AMP/cell well; 2B4 IgG 100 µg/mL alone (pmol/cell well) [18] was 0.298 and 0.318 and 0.376. For the same binder, the pmol cyclic AMP/cell well; hMAb TSHR1 Fab 5 ng/mL plus 2B4 IgG 100 µg/mL (pmol/cell well) [18] was 3.32 and 2.63 and 2.86, the x basal stimulation; 2B4 IgG 100 µg/mL alone [18] was 0.46 x basal and the x basal stimulation; hMAb TSHR1 Fab 5 ng/mL plus 2B4 IgG 100 µg/mL [18] was 4 x basal. The mean pmol cyclic AMP/cell well; 2B4 IgG 100 µg/mL alone (pmol/cell well) [19] was 0.49, the mean pmol cyclic AMP/cell well; pTSH 0.5 ng/mL plus 2B4 IgG 100 µg/mL (pmol/cell well) [19] was 0.78 and the pmol cyclic AMP/cell well; 2B4 IgG 100 µg/mL alone (pmol/cell well) [19] was 0.446 and 0.486 and 0.552. For the same binder, the pmol cyclic AMP/cell well; pTSH 0.5 ng/mL plus 2B4 IgG 100 µg/mL (pmol/cell well) [19] was 0.878 and 0.71 and 0.742, the x basal stimulation; 2B4 IgG 100 µg/mL alone [19] was 1.4 x basal and the x basal stimulation; pTSH 0.5 ng/mL plus 2B4 IgG 100 µg/mL [19] was 2.3 x basal.
